Substitutions are numbered along the chain they refer to.
T1: SLFN5 1-336 (Schlafen core domain) (Homo sapiens, UniProt Q08AF3 1-336)
T1 sequence: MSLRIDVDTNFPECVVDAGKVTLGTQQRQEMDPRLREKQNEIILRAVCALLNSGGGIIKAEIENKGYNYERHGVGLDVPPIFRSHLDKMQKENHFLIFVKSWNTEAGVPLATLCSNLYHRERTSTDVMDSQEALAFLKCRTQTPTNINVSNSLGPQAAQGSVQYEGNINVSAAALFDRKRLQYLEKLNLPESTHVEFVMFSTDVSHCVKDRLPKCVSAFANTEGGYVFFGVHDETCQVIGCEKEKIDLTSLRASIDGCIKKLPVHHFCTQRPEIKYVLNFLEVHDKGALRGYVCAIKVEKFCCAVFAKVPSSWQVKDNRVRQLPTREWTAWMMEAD

T2: SLFN5 full length (Homo sapiens, UniProt Q08AF3 1-891)
T2 sequence: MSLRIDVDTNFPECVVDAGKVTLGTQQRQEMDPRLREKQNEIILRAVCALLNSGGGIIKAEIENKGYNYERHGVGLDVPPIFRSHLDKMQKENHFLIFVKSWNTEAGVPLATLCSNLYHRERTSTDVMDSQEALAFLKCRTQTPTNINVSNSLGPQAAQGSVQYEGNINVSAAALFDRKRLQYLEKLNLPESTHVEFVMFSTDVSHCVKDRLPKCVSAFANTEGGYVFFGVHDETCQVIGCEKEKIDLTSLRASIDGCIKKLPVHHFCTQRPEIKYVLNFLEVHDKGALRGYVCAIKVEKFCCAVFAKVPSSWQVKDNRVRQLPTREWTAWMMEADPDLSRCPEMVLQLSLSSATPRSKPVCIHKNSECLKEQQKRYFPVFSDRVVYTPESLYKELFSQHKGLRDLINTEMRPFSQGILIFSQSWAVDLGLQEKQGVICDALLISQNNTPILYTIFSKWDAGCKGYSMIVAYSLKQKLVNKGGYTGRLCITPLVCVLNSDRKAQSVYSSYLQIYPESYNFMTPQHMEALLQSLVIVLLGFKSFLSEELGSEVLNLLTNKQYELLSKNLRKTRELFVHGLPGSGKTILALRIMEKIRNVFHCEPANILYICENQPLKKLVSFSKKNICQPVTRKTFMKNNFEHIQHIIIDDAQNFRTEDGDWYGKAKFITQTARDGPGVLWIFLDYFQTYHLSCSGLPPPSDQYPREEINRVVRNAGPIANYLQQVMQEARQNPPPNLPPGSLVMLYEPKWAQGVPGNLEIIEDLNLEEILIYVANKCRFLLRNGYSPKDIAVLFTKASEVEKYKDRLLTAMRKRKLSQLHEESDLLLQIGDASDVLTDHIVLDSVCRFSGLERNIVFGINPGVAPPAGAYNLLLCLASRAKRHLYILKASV

B1: 60 dT (ssDNA)
DNA: TTTTTTTTTTTTTTTTTTTTTTTTTTTTTTTTTTTTTTTTTTTTTTTTTTTTTTTTTTTT
B2: 60 bp DNA (60bp_A/T_GC) (dsDNA)
DNA 1: B1 DNA with T50G, T51C
DNA 2: AAAAAAAAAGCAAAAAAAAAAAAAAAAAAAAAAAAAAAAAAAAAAAAAAAAAAAAAAAAA
B3: 30 dT (ssDNA)
DNA: TTTTTTTTTTTTTTTTTTTTTTTTTTTTTT
B4: 196 bp DNA (0N49) (dsDNA)
DNA 1: CTGGAGAATCCCGGTGCCGAGGCCGCTCAATTGGTCGTAGCAAGCTCTAGCACCGCTTAAACGCACGTACGCGCTGTCCCCCGCGTTTTAACCGCCAAGGGGATTACTCCCTAGTCTCCAGGCACGTGTCAGATATATACATCCTGTGCATGTATTGAACAGCGACCTTGCCGGTGCCAGTCGGATAGTGTTCCGA
DNA 2: TCGGAACACTATCCGACTGGCACCGGCAAGGTCGCTGTTCAATACATGCACAGGATGTATATATCTGACACGTGCCTGGAGACTAGGGAGTAATCCCCTTGGCGGTTAAAACGCGGGGGACAGCGCGTACGTGCGTTTAAGCGGTGCTAGAGCTTGCTACGACCAATTGAGCGGCCTCGGCACCGGGATTCTCCAG
B5: 50 bp DNA (dsDNA)
DNA 1: AATTGGTCGTAGCAAGCTCTAGCACCGCTTAAACGCACGTACGCGCTGTC
DNA 2: GACAGCGCGTACGTGCGTTTAAGCGGTGCTAGAGCTTGCTACGACCAATT
B6: tRNA(Ser) (structured_RNA)
RNA: GUAGUCGUGGCCGAGUGGUUAAGGCGAUGGACUUGAAAUCCAUUGUGGUUUCCCCGCGCAGGUUCGAAUCCUGCCGACUACGCCA
B7: 60 rU (ssRNA)
RNA: UUUUUUUUUGCUUUUUUUUUUUUUUUUUUUUUUUUUUUUUUUUUUUUUUUUUUUUUUUUU
B8: 30 rU (ssRNA)
RNA: UUUUUUUUUUUUUUUUUUUUUUUUUUUUUU

How the values were obtained:
[1] = molecular target: T1, SLFN5 1-336 (Schlafen core domain); test: fluorescence anisotropy; FA: 2x buffer 100 mM HEPES pH 8.0, 100 mM NaCl mixed 1:1 with 100 nM (final) FAM ligand, 30 min on ice; EMSA: 25 mM HEPES pH 7.0, 60 mM NaCl, 5% glycerol, 2 mM; conditions: protein: recombinant, tags: C-terminal His6
[2] = molecular target: T2, SLFN5 full length; test: competition EMSA; with tRNASer, 20 nM each; 196 bp DNA preferred; FA: 2x buffer 100 mM HEPES pH 8.0, 100 mM NaCl mixed 1:1 with 100 nM (final) FAM ligand, 30 min on ice; EMSA: 25 mM HEPES pH 7.0, 60 mM NaCl, 5% glycerol, 2 mM; conditions: protein: recombinant; tags: N-terminal double FLAG, HRV 3C site; label: 5'-Cy5 (rev primer); blunt
[3] = molecular target: T2, SLFN5 full length; test: competition EMSA; with tRNASer, 20 nM each; comparable affinities; FA: 2x buffer 100 mM HEPES pH 8.0, 100 mM NaCl mixed 1:1 with 100 nM (final) FAM ligand, 30 min on ice; EMSA: 25 mM HEPES pH 7.0, 60 mM NaCl, 5% glycerol, 2 mM; conditions: protein: recombinant; tags: N-terminal double FLAG, HRV 3C site; label: 5'-Cy5 (fwd); blunt

Binder | Kd ([1]; label: 5'-FAM) [µM] | also measured
B1 | 7.8 | 
B2 |  | Kd ([1]; label: 5'-FAM (fwd), blunt): 2.5 µM
B3 | 11 | 
B4 |  | binding result [2]: binds
B5 |  | binding result [3]: binds
B6 |  | Kd ([1]; label: 5'-FAM, tRNA fold): 4.3 µM
B7 | 3.6 | 
B8 | 5.1 | 
